Test results reported in PMC2654206.

B1: BsLuxS (Co-BsLuxS) (Bacillus subtilis subsp. subtilis str. 168) (protein)
chain: MPSVESFELDHNAVVAPYVRHCGVHKVGTDGVVNKFDIRFCQPNKQAMKPDTIHTLEHLLAFTIRSHAEKYDHFDIIDISPMGCQTGYYLVVSGEPTSAEIVDLLEDTMKEAVEITEIPAANEKQCGQAKLHDLEGAKRLMRFWLSQDKEELLKVFG

Tests used:
Cys83 = Cys83 (UniProt position 83, ISPMGCRTGFY); details: free enzyme (no substrate or ligand bound); metal form not stated; cited from earlier work
[1] = tested on: N[C@@H](CCSC[C@@H](O)C(=O)[C@@H](O)CO)C(=O)O; assay: purified protein; details: Co(II) enzyme
[2] = tested on: N[C@@H](CCSC[C@@H](O)C(=O)[C@@H](O)CO)C(=O)O; assay: homocysteine release, DTNB assay; format: biochemical, Vibrio campbellii; details: Co(II) enzyme
[3] = substrate: N[C@@H](CCSC[C@@H](O)C(=O)[C@@H](O)CO)C(=O)O; assay: homocysteine release, DTNB assay; format: biochemical, Bacillus subtilis; details: Co(II) enzyme

Molecule | Km [2] | kcat [2] | kcat/Km [2] | also measured
S-ribosylhomocysteinase (LuxS), EcLuxS (Escherichia coli) |  |  |  | pKa (Cys83): <6
VhLuxS (Co-VhLuxS) (Vibrio campbellii ATCC BAA-1116) |  |  |  | Km [1]: 27 ± 2 µM; kcat [1]: 0.64 ± 0.02 s⁻¹; kcat/Km [1]: 24000 M⁻¹ s⁻¹
VhLuxS (Co-VhLuxS) (Vibrio campbellii ATCC BAA-1116; C83A) | 700 ± 120 µM | 0.022 ± 0.002 s⁻¹ | 31 M⁻¹ s⁻¹ | 
VhLuxS (Co-VhLuxS) (Vibrio campbellii ATCC BAA-1116; E57A) | 98 ± 13 µM | 0.012 ± 0.001 s⁻¹ | 120 M⁻¹ s⁻¹ | 
VhLuxS (Co-VhLuxS) (Vibrio campbellii ATCC BAA-1116; E57D) | 730 ± 120 µM | 0.026 ± 0.003 s⁻¹ | 36 M⁻¹ s⁻¹ | 
VhLuxS (Co-VhLuxS) (Vibrio campbellii ATCC BAA-1116; H11Q) | 520 ± 60 µM | 0.024 ± 0.002 s⁻¹ | 47 M⁻¹ s⁻¹ | 
VhLuxS (Co-VhLuxS) (Vibrio campbellii ATCC BAA-1116; R39M) | 150 ± 20 µM | 0.016 ± 0.001 s⁻¹ | 110 M⁻¹ s⁻¹ | 
VhLuxS (Co-VhLuxS) (Vibrio campbellii ATCC BAA-1116; S6A) | 40 ± 3 µM | 0.14 ± 0.01 s⁻¹ | 3400 M⁻¹ s⁻¹ | 
B1 |  |  |  | Km [3]: 3.6 ± 0.1 µM; kcat [3]: 0.038 ± 0.001 s⁻¹; kcat/Km [3]: 11000 M⁻¹ s⁻¹
